Drawing on the supplement of paper PMC10567573, this text covers protein stability index for 53 sequences.

± gives the standard deviation.

A short description of the data set: protein stability index of a GFP-peptide fusion (GPS, HEK-293T) (PSI 1-6); higher = more stable.
Where [1] appears, read: treatment: DMSO, c terminus: a fixed tail appended.
Where [2] appears, read: treatment: MLN4924 1 uM, 8 h, c terminus: a fixed tail appended.
[3] abbreviates: treatment: DMSO, c terminus: native.
Where [4] appears, read: treatment: MLN4924 1 uM, 8 h, c terminus: native.
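Note: 24-mer peptide tiles fused after GFP, lentivirally expressed, FACS-sorted into six equal bins by GFP/DsRed ratio, decoded by Illumina sequencing, PSI is the read-weighted mean bin number.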

DAFWWAVVSMTTVGYGDMYPVTIG [KCNA1]: the protein stability index is 3.45 ± 0.23 under setting [1] and 3.33 ± 0.49 under setting [2].

Regarding DALMKEQLVEMTGLSPRVIRVWFQ [ISL2], the protein stability index is, setting by setting: under setting [1], 2.27 ± 0.27; under setting [2], 2.22 ± 0.12.

For the sequence DCLEGKKSKHAPRGTHLWEFIRDI [ELF3], the protein stability index worked out at 2.66 ± 0.2 under setting [1] and 2.66 ± 0.39 under setting [2].

With DCRVDLGSEVYRMLREPAEPVAAE [PDLIM4], the protein stability index turned out to be 4.67 ± 0.05 under setting [1] and 4.76 ± 0.092 under setting [2].

With DCTETIEGLELTEQTFSPAKSLSF [ADD1], the protein stability index came out at 4.16 ± 0.36 under setting [1] and 4.21 ± 0.26 under setting [2].

As for DDEDEEEEDADCYDDDDSGNEES [UBE2R2], the protein stability index by setting is: under setting [3], 5.57 ± 0.33; under setting [4], 5.57 ± 0.084.

For the sequence DEAKKFHLRPELRSQMQGPRTRAR [KLHL12], the protein stability index under setting [1] is 4.8 ± 0.1 and the protein stability index under setting [2] came to 4.67 ± 0.42.

Take DEDELRKSLSELVDDKFGTGTKKV [PSD2]: the protein stability index was determined as 5.2 ± 0.15 under setting [1] and 5.4 ± 0.21 under setting [2].

Regarding DEEHMEEAITSASFLEQIMAPLQP [FAM189A2], the protein stability index by setting is: under setting [1], 4.74 ± 0.18; under setting [2], 4.96 ± 0.19.

In the case of DELTLARTDLEMQIEGLNEELAYL [KRT15], the protein stability index runs as follows: under setting [1], 4.1 ± 0.21; under setting [2], 4.42 ± 0.36.

Take DENERDLMHIAHIAELLEVFDLRM [RHOBTB2]: the protein stability index is, setting by setting: under setting [1], 2.63 ± 0.11; under setting [2], 2.7 ± 0.34.

For DGAGKTPTLGGGFHVNLGKESRAQ [BRF1], the protein stability index was 4.63 ± 0.14 under setting [1] and 4.77 ± 0.34 under setting [2].

As for DGAPALCPSPEALSPEPPVYSLQD [PRKX], the protein stability index reads like this: under setting [1], 5.37 ± 0.098; under setting [2], 5.21 ± 0.15.

For the sequence DISMEIPQEFQKTVSTMYYLWMCS [SCAMP3], the protein stability index is 2.28 ± 0.54 under setting [1] and 2.38 ± 0.39 under setting [2].

As for DKEGYNSIHYAAAYGHRQCLELVS [ANKRD44], the protein stability index was 2.42 ± 0.14 under setting [1] and 2.59 ± 0.21 under setting [2].

On to DLDACALVRGHRRRLLRRLSPSRG [ZSWIM9], for which the protein stability index runs as follows: under setting [1], 4.11 ± 0.46; under setting [2], 4.12 ± 0.29.

Consider DLDNYFTARRLLSQVRALDRFQVP [NFE2L1], for which the protein stability index came out at 2.5 ± 0.2 under setting [1] and 2.35 ± 0.3 under setting [2].

As for DLHKMNHVTPPNVSLGATGGPPAG [JUNB], the protein stability index is, setting by setting: under setting [1], 4.38 ± 0.19; under setting [2], 4.39 ± 0.078.

Consider DLKLRKFVFSTEERTQLRLESLED [TRIB1], for which the protein stability index was 3.74 ± 0.1 under setting [1] and 4.2 ± 0.43 under setting [2].

On to DLYNWEVAIFGPPNTYYEGGYFKA [CDC34], for which the protein stability index runs as follows: under setting [1], 2.65 ± 0.5; under setting [2], 2.51 ± 0.95.

As to DMAGDWHWALRVTPGLGVVAVLLL [SPNS1], the protein stability index is, setting by setting: under setting [1], 2.82 ± 0.41; under setting [2], 2.5 ± 0.48.

With DNILSLINVNDLSFVTGSHVGELI [WDR41], the protein stability index under setting [1] worked out at 2.36 ± 0.32 and the protein stability index under setting [2] is 2.63 ± 0.31.

As for DNVRSLKVESGAWIGYEHTSFCGQ [CRYBA1], the protein stability index by setting is: under setting [1], 3.14 ± 0.2; under setting [2], 3.07 ± 0.22.

In the case of DPALRRRRRGPRNKKRGWRRLAQE [NOP53], the protein stability index came to 4.73 ± 0.3 under setting [1] and 4.92 ± 0.24 under setting [2].

In turn, DPDVGVNSLQSYQLSPNKHFSLRV [PCDHGA10] returned a protein stability index under setting [1] of 2.6 ± 0.25 and a protein stability index under setting [2] of 2.51 ± 0.24.

Take DPRYNKWMQVASLNEKRTFFHLSA [KLHL13]: the protein stability index under setting [1] amounted to 2.36 ± 0.32 and the protein stability index under setting [2] is 2.12 ± 0.13.

As to DPSKRALSRDTVQESYENVDSLES [ZNF263], the protein stability index reads like this: under setting [1], 5.51 ± 0.065; under setting [2], 5.56 ± 0.18.

Take DQGDEGKEGRPGIPGLPGLRGLPG [SCARA5]: the protein stability index reads like this: under setting [1], 5 ± 0.13; under setting [2], 4.93 ± 0.29.

In the case of DQPMGGWEMIRKIGDTSVSYKYTS [LMNB1], the protein stability index reads like this: under setting [1], 3.1 ± 0.31; under setting [2], 3.2 ± 0.28.

Sequence DRFSGETSAAALSPMSAATLGGLN [SMTNL2] displayed a protein stability index under setting [1] of 4.46 ± 0.14 and a protein stability index under setting [2] of 4.21 ± 0.24.

DRGGWGISPRGAGYTFGQDISETF [PPP2CA] yielded a protein stability index under setting [1] of 3.21 ± 0.18 and a protein stability index under setting [2] of 3.3 ± 0.34.

In the case of DRGKDSVEILMILFAFMLVYPKEF [PPEF2], the protein stability index is, setting by setting: under setting [1], 2.97 ± 0.19; under setting [2], 2.71 ± 0.61.

For the sequence DRHGVYGLQRNLLVENIIDIYKQE [TRIM63], the protein stability index reads like this: under setting [1], 3.2 ± 0.32; under setting [2], 3.39 ± 0.24.

On to DSFTTNKEHAVTMPCTWVMACAYA [GNB5], for which the protein stability index amounted to 2.73 ± 0.79 under setting [1] and 2.53 ± 0.58 under setting [2].

On to DSLPMDAYTHGCILHPELTVDSMI [GDAP1], for which the protein stability index by setting is: under setting [1], 3.29 ± 0.26; under setting [2], 3.47 ± 0.11.

Regarding DSRRVTKENSHQVKEELSQKFDTL [TRIM63], the protein stability index is 5.08 ± 0.066 under setting [1] and 5.02 ± 0.28 under setting [2].

For the sequence DSTTTRQRRSRQNPQSPPQDSSVT [HDAC6], the protein stability index is, setting by setting: under setting [1], 5.13 ± 0.24; under setting [2], 5.53 ± 0.098.

With DVDLLDSKVIEILDSQTEIYQYVQ [DLC1], the protein stability index under setting [1] was found to be 3.41 ± 0.31 and the protein stability index under setting [2] is 3.62 ± 0.38.

Consider DVELLQDLGDIVARSESVLLHMPQ [TRIM43], for which the protein stability index amounted to 3.18 ± 0.2 under setting [1] and 3.25 ± 0.35 under setting [2].

For DVGDWRKNIEEKSGMEGRKKMFES [TNNI2], the protein stability index is 4.3 ± 0.14 under setting [1] and 4.38 ± 0.25 under setting [2].

As to DVSLVGGPADCSPPHPAPAPQHPA [DYRK1B], the protein stability index is 5.02 ± 0.16 under setting [1] and 5.14 ± 0.12 under setting [2].

As to DWRKNIEEKSGMEGRKKMFESES [TNNI2], the protein stability index turned out to be 3.04 ± 0.93 under setting [3] and 3.86 ± 0.92 under setting [4].

Take EAAEAVRPEERKTCRNPACGPQWE [ADAMTSL2]: the protein stability index stood at 4.8 ± 0.27 under setting [1] and 4.74 ± 0.21 under setting [2].

As for EAFRLKQQLHARYVLNLLYETKKH [PPEF2], the protein stability index reads like this: under setting [1], 2.5 ± 0.61; under setting [2], 2.36 ± 0.33.

As for ECSYTSADGQRHHSKLLVSGFWGV [DHCR7], the protein stability index came to 2.09 ± 0.1 under setting [1] and 2.17 ± 0.31 under setting [2].

Turning to EDEDIYKLRHDLKKTSITQQPSKH [PLK2], the protein stability index reads like this: under setting [1], 4.98 ± 0.35; under setting [2], 5.1 ± 0.13.

In the case of EDEDPEEMPKSSDFLIHPPERSDL [PCDHGC5], the protein stability index worked out at 5.41 ± 0.13 under setting [1] and 5.4 ± 0.24 under setting [2].

Take EDHLAVKHFSVEGQLEFRALLFIP [HSP90AB1]: the protein stability index under setting [1] was 1.57 ± 0.54.

For the sequence EDQVVVNKAAVMVHQLSKKEASRH [CTNNB1], the protein stability index runs as follows: under setting [1], 4.82 ± 0.25; under setting [2], 4.8 ± 0.22.

Take EEFAAGPAQSGILSDREVVNLFLH [BTBD1]: the protein stability index under setting [1] was 3.16 ± 0.56 and the protein stability index under setting [2] was 3.46 ± 0.22.

EEPELSPAYLISEAMRRSRMSLYC [GFOD1]: the protein stability index worked out at 2.43 ± 0.23 under setting [1] and 2.37 ± 0.3 under setting [2].

On to EFLGNRSVILNHMAREHAFNIGLP [ZNF277], for which the protein stability index worked out at 2.21 ± 0.19 under setting [1] and 2.26 ± 0.2 under setting [2].

Take EFLWGPRAHAEIRKMSLLKFLAKV [MAGEA10]: the protein stability index runs as follows: under setting [1], 2.38 ± 0.3; under setting [2], 2.66 ± 0.17.
